Source: the supplement of paper PMC10724198
± gives the standard deviation of the averaged measurements.

system: Saccharomyces cerevisiae; assay: protein stability index of tFT-peptide fusion (C-terminal peptide) (PSI (0-1 scale)); higher = more stable (slower turnover); conditions: genetic background: wild type; temperature: 30 C
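Further: PSI is a weighted mean of sequencing reads over stability bins, variants kept only with over 10 reads, mCherry proximal and sfGFP distal, peptide attached via GGGS linker.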

Sequence | protein stability index
SSPHRPTPSWPP | 0.564 ± 0.0069
SSPLPPAPPTAS | 0.587 ± 0.1
SSPLPPPSRAAC | 0.762 ± 0.011
SSPPFPPSPPLP | 0.695 ± 0.012
SSPPPPPPPLPL | 0.705 ± 0.023
SSPPSPSPPPPT | 0.678 ± 0.038
SSPPTPPFPPPP | 0.7044 ± 0.00099
SSPRPPPPRFSP | 0.687 ± 0.039
SSPSPPRPPAPF | 0.704 ± 0.091
SSPSPPSPPLPP | 0.735 ± 0.0095
SSRFNVAPGGCR | 0.745 ± 0.11
SSRGSSSPPPHF | 0.709 ± 0.074
SSSHIRTDLSHF | 0.6852 ± 0.0065
SSSPLLDPPLPH | 0.68 ± 0.017
SSSPSPRPPRPP | 0.679 ± 0.0097
SSSVQSIPLPSA | 0.71 ± 0.043
SSTDLLDLALLV | 0.718 ± 0.094
SSWGARSGRRPS | 0.6989 ± 0.0045
STAKTARRKREK | 0.671 ± 0.0094
STFGVMVTHEMN | 0.727 ± 0.021
STFQVHSLPISP | 0.702 ± 0.031
STGMYFYTHYLL | 0.632 ± 0.024
STHTASAIQWST | 0.661 ± 0.025
STIIKLCDCYKM | 0.7 ± 0.11
STLPPPSSPFHP | 0.96 ± 0.021
STLPTHQLPPHS | 0.624 ± 0.022

Sequence | protein stability index
STLRFGVSLWLP | 0.712 ± 0.03
STLTPLPLRASA | 0.5333 ± 0.005
STLVIPFPPFHF | 0.7 ± 0.018
STLYLKRKKIKK | 0.696 ± 0.033
STNARRLWGRGV | 0.699 ± 0.033
STPPPHSPLPPP | 0.689 ± 0.066
STRERPDRHAVS | 0.676 ± 0.016
STSPRSAFSPLT | 0.619 ± 0.011
STVPGRPKLTLV | 0.578 ± 0.032
SVALGRQGTPNI | 0.6506 ± 0.0064
SVALPLRQTPLH | 0.667 ± 0.047
SVAPAPYQTAKQ | 0.744 ± 0.032
SVCRVSVKKECR | 0.701 ± 0.12
SVCSRVLILSPF | 0.657 ± 0.068
SVDPIFLNSGLG | 0.693 ± 0.045
SVFPHPYMVVRS | 0.598 ± 0.0092
SVGPVGASIGGG | 0.6668 ± 0.0032
SVHPVNRDPSRH | 0.6904 ± 0.0014
SVINMLKPCNVI | 0.647 ± 0.05
SVLVTRILKFFL | 0.558 ± 0.068
SVMMGVWWSGYR | 0.709 ± 0.13
SVNGTGGGVVDL | 0.638 ± 0.12
SVPFPTEYLVVD | 0.681 ± 0.075
SVPNYDAVGAGD | 0.667 ± 0.097
SVPRPLSRPPFL | 0.697 ± 0.086
SVPVLLLSILSP | 0.542 ± 0.013

Sequence | protein stability index
SVSGPAPPSMSS | 0.618 ± 0.12
SVSGTPLRALLH | 0.622 ± 0.01
SVSPSPPSPHLR | 0.688 ± 0.011
SVTSKDEYDLEE | 0.694 ± 0.043
SVVGEKAALMGV | 0.662 ± 0.014
SWGACVDYLGWS | 0.754 ± 0.03
SWGDVGSWLGGV | 0.663 ± 0.0068
SWGLGWIARRRT | 0.684 ± 0.052
SWLGGIGGNEMV | 0.726 ± 0.011
SWLKRNLFPVAI | 0.596 ± 0.018
SWVDVGSWLGGV | 0.7108 ± 0.0043
SWVGHGIPPWHM | 0.729 ± 0.027
SWVSQFLVFWPV | 0.716 ± 0.044
SWVSSGTVILQE | 0.74 ± 0.077
SWYSLVWTSSER | 0.695 ± 0.054
SYCRPPPLPGLP | 0.628 ± 0.038
SYETLRTPARIA | 0.583 ± 0.043
SYLMVATRFGEN | 0.741 ± 0.067
SYMLEGVEGVGE | 0.736 ± 0.086
SYPPLLPQLPPP | 0.678 ± 0.062
SYPRATPPWMAG | 0.727 ± 0.092
SYQPQLDSKRVG | 0.63 ± 0.019
SYRNRTEHPKLP | 0.74 ± 0.036
SYSGLLEALTTL | 0.737 ± 0.032
SYSLGAGVCGVW | 0.682 ± 0.058
TANRVDDSILSS | 0.671 ± 0.024

Sequence | protein stability index
TARRGAARSSQL | 0.695 ± 0.017
TASPPLHSFLGS | 0.679 ± 0.034
TAYNVTLVIARG | 0.468 ± 0.094
TCAGTGSTHLSR | 0.688 ± 0.035
TCPLSFFLSFLF | 0.565 ± 0.037
TCTDTCIRGSRL | 0.77 ± 0.033
TCTGAKHRCHVL | 0.677 ± 0.011
TDWCSYWSGWVV | 0.722 ± 0.019
TEFFVFNRTQSL | 0.671 ± 0.088
TEGGSSKPSSNP | 0.704 ± 0.089
TEKTHRTTIVNN | 0.7254 ± 0.0061
TESGWMGRGFMR | 0.656 ± 0.088
TEVSAPAPPCLW | 0.6371 ± 0.0058
TEYCSRHDTATK | 0.728 ± 0.0096
TFRHLRPPLRSR | 0.649 ± 0.037
TFSGWYIQGQIV | 0.702 ± 0.16
TFSWISGKPRHT | 0.679 ± 0.041
TGEVPPPRCEGE | 0.638 ± 0.014
TGGRRKNCIIKK | 0.688 ± 0.062
TGKIRWIPAIRS | 0.64 ± 0.039
TGLYWGQIPYSQ | 0.687 ± 0.062
TGPSLDRALLDL | 0.6412 ± 0.002
TGRGSMSNVRVK | 0.706 ± 0.06
TGTATGTEGANY | 0.698 ± 0.022
TGTEKFTMQFKF | 0.673 ± 0.042
TGTVYGGTRRGQ | 0.698 ± 0.075

Sequence | protein stability index
TGVCKGMRWRGV | 0.683 ± 0.045
THCWQVLPCGLI | 0.723 ± 0.0089
THRAGLGANKGL | 0.696 ± 0.029
THSLRIRESNNT | 0.674 ± 0.014
TKCSPLASRFSC | 0.707 ± 0.016
TKKKKKKNKKQE | 0.683 ± 0.012
TKNTQNNGKDKK | 0.734 ± 0.059
TKQLKGEQERDG | 0.648 ± 0.031
TKRRRKRRGAKK | 0.672 ± 0.014
TKVCWNVDYNVL | 0.697 ± 0.012
TKWAISRLHNSA | 0.64 ± 0.012
TKYIGDGCVCSC | 0.645 ± 0.018
TLCTKCNVFSCC | 0.682 ± 0.062
TLFVAWTDCMSY | 0.6591 ± 0.0061
TLIEWSAKGCRR | 0.693 ± 0.047
TLKGERHKKNKR | 0.623 ± 0.035
TLRKTTRHRRNA | 0.737 ± 0.069
TLSLPPLHPPPH | 0.699 ± 0.0063
TLSPPPALASPL | 0.71 ± 0.037
TLTTVLSPHSHR | 0.716 ± 0.0073
TLVALGFIYASG | 0.572 ± 0.0048
TLYKSEQIAFFL | 0.644 ± 0.047
TMLIGTAQAVNN | 0.604 ± 0.026
TNALVGEWVGLG | 0.795 ± 0.11
TNANKKNGRGNT | 0.683 ± 0.041
TNKRKNIRTKQR | 0.638 ± 0.037

Sequence | protein stability index
TPASAGLACILL | 0.672 ± 0.013
TPGGRTLATALR | 0.676 ± 0.018
TPHAPTATPRDN | 0.727 ± 0.076
TPLAPASPPAAR | 0.717 ± 0.056
TPLPPLPPHPPS | 0.727 ± 0.0087
TPNLQPLPRNLD | 0.765 ± 0.037
TPPCACTPPRAP | 0.686 ± 0.081
TPQSLRDAHGSC | 0.662 ± 0.056
TPRASLSATSRS | 0.719 ± 0.016
TPRTNATAMCTP | 0.72 ± 0.038
TPSYSPPSRHDP | 0.634 ± 0.093
TPTRRIIPHTHP | 0.685 ± 0.086
TQARDTIPGAKV | 0.678 ± 0.02
TQEKKGKIRGGI | 0.685 ± 0.0085
TQSPANIIQRKT | 0.672 ± 0.024
TQTLPPPLPPLL | 0.675 ± 0.02
TQWRSRRHLKPQ | 0.72 ± 0.032
TQYINTAHKELK | 0.6677 ± 0.00083
TQYTDNQTPITK | 0.6673 ± 0.0027
TRAKVQSRGSLS | 0.708 ± 0.039
TRCKRNETCTSG | 0.669 ± 0.046
TRECGRLRQAET | 0.723 ± 0.067
TRHPGGERIPTY | 0.743 ± 0.12
TRIRLQKNVITL | 0.683 ± 0.014
TRLGWSWGFAHR | 0.719 ± 0.11
TRREQYSSSNLV | 0.674 ± 0.04

Sequence | protein stability index
TRRKKKKNTGTK | 0.71 ± 0.022
TRRLEFPEPPMS | 0.708 ± 0.061
TRSGGNGYERVC | 0.667 ± 0.03
TSCFIWGCACCR | 0.656 ± 0.058
TSEIGKEINYRK | 0.66 ± 0.017
TSFLRSPPPPRL | 0.763 ± 0.012
TSGRTLVNDKCT | 0.716 ± 0.012
TSIFRIICLTDR | 0.642 ± 0.022
TSKPGLQIPRRE | 0.747 ± 0.047
TSKTLHKTNNIK | 0.698 ± 0.028
TSPLSPAPPPPR | 0.641 ± 0.083
TSPPPGTHTLQP | 0.626 ± 0.023
TSQASIRDLTNK | 0.579 ± 0.016
TTPHTSFTILHP | 0.696 ± 0.087
TTPRAILPLSSI | 0.67 ± 0.043
TTSRTRVAHPPI | 0.622 ± 0.071
TVGSVAREGPFW | 0.696 ± 0.025
TVLTDKKGRVRS | 0.71 ± 0.0093
TVMSDCQTDQAS | 0.657 ± 0.065
TVNHKHALQFAT | 0.681 ± 0.091
TVRLAPCPLSDT | 0.744 ± 0.075
TVVSFMFCPSLT | 0.667 ± 0.061
TWGLGVFSIMDC | 0.633 ± 0.052
TWPGRAGGRGAT | 0.721 ± 0.1
TWRWVGGRWSGL | 0.5601 ± 0.0026
TYATPSLVFPLL | 0.695 ± 0.011

Sequence | protein stability index
TYPSWIYELNKT | 0.753 ± 0.077
TYQVVPRDAPYV | 0.672 ± 0.025
TYVSKCRLYEPA | 0.644 ± 0.011
VAAFGGGRTNGV | 0.724 ± 0.024
VAAQRYAQRLFT | 0.652 ± 0.021
VACYVDWSQNHR | 0.728 ± 0.06
VAGFVPSWVALW | 0.643 ± 0.1
VALEFLGWVGLS | 0.684 ± 0.094
VALHRIPVTVSR | 0.578 ± 0.026
VALLKCTGTAQI | 0.61 ± 0.033
VAPDSARVFHFV | 0.64 ± 0.025
VARCWGGLGLAR | 0.692 ± 0.047
VARPEWWSGGGS | 0.727 ± 0.03
VARPMHFIRYGK | 0.716 ± 0.018
VARRGLFLSISW | 0.596 ± 0.088
VASFLRFRLPPQ | 0.71 ± 0.083
VASPAPALRPPL | 0.746 ± 0.093
VAVDGSDQGGTR | 0.64 ± 0.079
VAVGHWGIVPLW | 0.725 ± 0.08
VAVMPKPLGVVR | 0.552 ± 0.046
